The target in assay [1] is T1, streptavidin (UniProt P22629 37-163, limits assumed).
T1 construct: Immobilised on a CM5 chip (2000 RU) for SPR; coated on plates for ELISA; also called streptavidin protein
Put plainly: SPR (BIAcore X), streptavidin immobilised on CM5 chip, synthetic peptide as analyte. On the procedure:
(§1) A streptavidin-binding peptide optimized peptide and an existing peptide were synthesized (Anygen). The affinity measurement was conducted using BIAcore X (Biacore AB, Uppsala, Sweden). Here, 2000 RU of streptavidin was allowed to flow on the CM5 chip (Biacore) for immobilization. PBS (pH 7.4) was used as a running buffer, and the kinetics at different concentrations was measured under a flow rate of 30 μl per minute. The affinity was calculated using BlAevaluation software (Biacore AB, Uppsala, Sweden).
(§2) Optimized peptide Strep_opti1 and control peptide […] were synthesized, and affinities thereof were measured using the SPR Biacore system.
In general terms: In SPR one partner is held on a chip, and binding of the other changes the refractive index at the surface.

Assay [2] addresses T1, streptavidin. Put plainly: phage ELISA, wells coated with 5 µg/ml protein, anti-M13-HRP, absorbance at 450 nm. On the procedure:
In order to investigate specificities to streptavidin, of peptides (VEGFR1_opti1, VEGFR1_opti2, and VEGFR1_opti3) obtained through sequencing, recombinant phages expressing these peptides were used to investigate specificities to VEGFR1, VEGFR2, streptavidin, HSA, TNF, and VEGF. First, 5 μg/ml VEGFR1, VEGFR2, streptavidin, HSA, TNF, and VEGF were put in a 96-well ELISA plate (50 μl per well), and then allowed to stand at 4° C. overnight. The next day, all the wells were washed three times with 0.1% PBST, and blocked at room temperature for 2 hrs using 2% BSA diluted with PBS. Then, the whole solution was discarded, followed by washing three times with 0.1% PBST. 800 μl of recombinant phages of each of VEGFR1_opti1, VEGFR1_opti2, and VEGFR1_opti3 and 200 μl of 10% BSA were added thereto, and each 100 μl was dispensed into VEGFR1, VEGFR2, streptavidin, HSA, TNF, and VEGF wells, followed by standing at 27° C. for 1 hr. After washing five times with 0.1% PBST solution, the HRP-conjugated anti-M13 antibody (GE Healthcare) was diluted to 1:1,000, and then the reaction was performed at 27° C. for 1 hr. After washing with 0.1% PBST five times, 100 μl of the TMB solution was dispensed into each well to induce a colorimetric reaction, and then the reaction was stopped by adding 100 μl of 1 M HCl. The absorbance was measured at 450 nm.
On the technique in general: An ELISA detects its analyte on a solid surface through an enzyme-linked reagent.

Assay [3] has as its target T2, fibronectin extra domain B (ED-B) (UniProt P02751 1266-1356, biotinylated (biotin ED-B), site not stated).
T2 construct: domain: ED-B; Biotin-EDB captured on a streptavidin SA chip (2,000 RU) for SPR and on streptavidin-coated wells for ELISA; also called biotin ED-B; biotin-EDB
Description: SPR (Biacore X), biotin-EDB on a streptavidin SA chip. On the procedure: (§3) The bipodal peptide binder found from BPB2EDB, BPB3EDB, and BPB4EDB maturation libraries were synthesized (Anygen, Korea). The affinity measurement was conducted using BIAcore X (Biacore AB, Uppsala, Sweden). 2,000 RU of biotin-EDB was allowed to flow on the streptavidin SA chip (Biacore) for immobilization. PBS (pH 7.4) was used as a running buffer, and kinetics at different concentrations was measured under a flow rate of 30 μl per minute. The affinity was calculated using BlAevaluation software (Biacore AB, Uppsala, Sweden).

For assay [4], the target named is T2, fibronectin extra domain B (ED-B). Description: SPR (BIAcore X), biotin-EDB on streptavidin SA chip, synthetic peptide as analyte; peptide 1. On the procedure: as §3
Assay [5] has as its target T1, streptavidin. Description: SPR (BIAcore X), ratio of KD values. On the procedure: as §1, §2
Assay [6] concerns the target T3, BSA (bovine, UniProt P02769).
T3 construct: not further described; off-target control protein of the specificity ELISA
Put plainly: phage ELISA, wells coated with 5 µg/ml protein, anti-M13-HRP, absorbance at 450 nm. Here is the method: In order to investigate specificities to streptavidin, of peptides (Strep_opti1 and Strep_opti2) obtained through sequencing, recombinant phages expressing these peptides were used to investigate specificities to streptavidin, BSA, ovalbumin, and VEGF. First, 5 μg/ml streptavidin, BSA, ovalbumin, and VEGF were put in a 96-well ELISA plate (50 μl per well), and then allowed to stand at 4° C. overnight. Next day, all the wells were washed three times with 0.1% PBST, and blocked at room temperature for 2 hrs using 2% BSA diluted with PBS. Then, the solution was discarded, followed by washing with 0.1% PBST three times. 800 μl of recombinant phages of each of Strep_opti1 and Strep_opti2 and 200 μl of 10% BSA were added thereto, and each 100 μl was dispensed into streptavidin, BSA, ovalbumin, and VEGF wells, followed by standing at 27° C. for 1 hr. After washing five times with 0.1% PBST solution, the HRP-conjugated anti-M13 antibody (GE Healthcare) was diluted to 1:1,000, and then the reaction was performed at 27° C. for 1 hr. After washing five times with 0.1% PBST, 100 μl of the TMB solution was dispensed into each well to induce a colorimetric reaction, and then the reaction was stopped by adding 100 μl of 1 M HCl. The absorbance was measured at 450 nm.

Assay [7] deals with T2, fibronectin extra domain B (ED-B). Description: SPR (BIAcore X), biotin-EDB on streptavidin SA chip.
For assay [8] the target is unchanged. Description: SPR (BIAcore X), biotin-EDB on streptavidin SA chip, synthetic peptide as analyte; peptide 2. On the procedure:
as §3

For assay [9], the target named is T4, vascular endothelial growth factor receptor 1 (VEGFR1) (UniProt P17948 27-756, limits assumed).
T4 construct: Immobilised on a CM5 chip (7000 RU) for SPR; coated on plates for ELISA; also called VEGFR1 protein
T4 sequence (P17948 27-756 limits assumed): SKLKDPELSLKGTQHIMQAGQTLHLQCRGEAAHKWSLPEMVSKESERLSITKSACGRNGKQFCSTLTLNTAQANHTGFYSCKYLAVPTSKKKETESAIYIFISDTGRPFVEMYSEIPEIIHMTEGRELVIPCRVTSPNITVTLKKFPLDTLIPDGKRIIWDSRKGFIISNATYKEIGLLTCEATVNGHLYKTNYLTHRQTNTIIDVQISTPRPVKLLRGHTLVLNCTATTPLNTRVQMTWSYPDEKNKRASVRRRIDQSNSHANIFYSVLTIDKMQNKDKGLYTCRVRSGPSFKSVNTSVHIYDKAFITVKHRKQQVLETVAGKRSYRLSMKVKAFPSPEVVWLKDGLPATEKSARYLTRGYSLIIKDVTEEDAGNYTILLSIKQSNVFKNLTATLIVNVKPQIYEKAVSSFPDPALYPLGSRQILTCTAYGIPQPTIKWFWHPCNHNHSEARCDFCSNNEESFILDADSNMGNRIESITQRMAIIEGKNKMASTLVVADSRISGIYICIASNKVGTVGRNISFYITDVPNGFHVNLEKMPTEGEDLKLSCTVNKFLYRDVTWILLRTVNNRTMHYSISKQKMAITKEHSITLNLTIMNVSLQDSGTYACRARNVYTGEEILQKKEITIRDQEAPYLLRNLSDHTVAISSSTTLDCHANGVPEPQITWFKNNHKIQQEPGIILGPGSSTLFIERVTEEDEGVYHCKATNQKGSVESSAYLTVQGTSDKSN
Put plainly: SPR (BIAcore X), from RU at 5 µM against the control's RU at 200 µM. On the procedure:
A VEGFR1-binding peptide optimized peptide and an existing peptide were synthesized (Anygen). The affinity measurement was conducted using BIAcore X (Biacore AB, Uppsala, Sweden). Here, 7000 RU of VEGFR1 was allowed to flow on the CM5 chip (Biacore) for immobilization. PBS (pH 7.4) was used as a running buffer, and the kinetics at different concentrations was measured under a flow rate of 30 μl per minute. The affinity was calculated using BlAevaluation software (Biacore AB, Uppsala, Sweden).
Optimized peptide VEGFR1_opti1 and control peptide GNQWFI were synthesized, and affinities thereof were measured using the SPR Biacore system.

A word on the Kd: it is the constant that tells how readily two partners part at equilibrium. The low end stands for a tighter complex, the high end for a looser complex. What is called koff is the first-order rate constant of dissociation. High values mean fast dissociation, low ones slow dissociation. Usually kon stands for a measure of how fast the partners come together. Lower therefore signals slow association.

T1 sequence (P22629 37-163 limits assumed): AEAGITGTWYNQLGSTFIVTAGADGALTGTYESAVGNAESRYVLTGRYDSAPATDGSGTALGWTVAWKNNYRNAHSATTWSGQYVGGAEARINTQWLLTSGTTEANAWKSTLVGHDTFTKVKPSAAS
T2 sequence (P02751 1266-1356 limits assumed): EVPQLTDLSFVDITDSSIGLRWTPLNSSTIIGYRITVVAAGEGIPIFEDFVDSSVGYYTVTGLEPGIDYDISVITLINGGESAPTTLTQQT
T3 sequence (P02769 25-607 limits assumed): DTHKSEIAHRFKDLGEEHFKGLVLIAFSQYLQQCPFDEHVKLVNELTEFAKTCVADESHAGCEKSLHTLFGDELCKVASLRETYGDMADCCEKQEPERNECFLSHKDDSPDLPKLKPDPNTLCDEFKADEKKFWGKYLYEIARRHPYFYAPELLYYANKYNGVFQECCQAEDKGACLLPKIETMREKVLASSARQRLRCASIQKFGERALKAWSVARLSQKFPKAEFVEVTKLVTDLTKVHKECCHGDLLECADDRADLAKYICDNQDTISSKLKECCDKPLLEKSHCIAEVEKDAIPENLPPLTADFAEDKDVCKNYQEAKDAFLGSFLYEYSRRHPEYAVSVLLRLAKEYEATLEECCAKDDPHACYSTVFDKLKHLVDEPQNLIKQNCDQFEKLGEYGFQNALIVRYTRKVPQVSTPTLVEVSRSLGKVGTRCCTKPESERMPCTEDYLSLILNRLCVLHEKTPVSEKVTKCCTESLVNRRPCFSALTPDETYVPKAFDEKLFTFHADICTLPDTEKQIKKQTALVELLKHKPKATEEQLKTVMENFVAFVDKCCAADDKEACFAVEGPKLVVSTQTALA

B1: streptavidin-binding peptide WSHPQFEK (peptide)
peptide: WSHPQFEK
notes: Synthetic control peptide in SPR; also called known peptide
In turn, B1 returned a Kd in [1] of 82000 nM.

As for GNQWFIGGGSWTWENGKWTWKGKLQNPM (also called KPI-BPB VEGFR1_opti2) [VEGFR1_opti2], the binding result in assay [2] is on record as “no binding”.

B2: peptide 1 (WGGPVRGSWTWENGKWTWKGIIRLEQ) (peptide)
peptide: WGGPVRGSWTWENGKWTWKGIIRLEQ
notes: Synthetic in SPR; on phage in the colony ELISA; also called BPB2 peptide 1
In [3], B2 had a koff of 0.02 s⁻¹ and a kon of 250000 M⁻¹ s⁻¹. Besides, in assay [4], the Kd amounted to 115 nM.

Take WSHPQFEKGGGSWTWENGKWTWKGAHPQVR (Synthetic peptide in SPR) [Strep_opti1]: the “fold increase in affinity compared with control peptide WSHPQFEK” value in assay [5] worked out at 1220 fold. In addition, in [1], binding was put at a Kd of 67 nM. Further, the binding result in assay [6] is listed as “no binding”.

On to CSSPIQGSWTWENGKWTWKGIIRLEQ (also called BPB2EDB; BPB2) [peptide 3 (CSSPIQGSWTWENGKWTWKGIIRLEQ)], for which, in assay [7], the Kd is 16 nM, the koff was determined as 0.00051 s⁻¹ and the kon turned out to be 30000 M⁻¹ s⁻¹.

B3: peptide 2 (ADGRVRGSWTWENGKWTWKGIIRLEQ) (peptide)
peptide: ADGRVRGSWTWENGKWTWKGIIRLEQ
notes: Synthetic in SPR; on phage in the colony ELISA; also called BPB2 peptide 2
Turning to B3, in [3], the koff was 0.01 s⁻¹ and the kon came to 370000 M⁻¹ s⁻¹. In assay [8], this molecule gave a Kd of 35 nM.

As for GNQWFIGGGSWTWENGKWTWKGQQAIQP (also called KPI-BPB VEGFR1_opti3) [VEGFR1_opti3], in assay [2], the binding result is on record as “no binding”.

For WSHPQFEKGGGSWTWENGKWTWKGTLIHPM [Strep_opti2], in [6], the binding result is reported as “no binding”.

B4: VEGFR1_opti1 (peptide)
peptide: GNQWFIGGGSWTWENGKWTWKGRIPKNR
notes: Synthetic peptide in SPR; also called optimized peptide VEGFR1_opti1; KPI-BPB VEGFR1_opti1
B4: in [9], the “fold increase in affinity compared with the control peptide” value was roughly 360 fold. In assay [2], the binding result is “no binding”.
